The values that follow are results of earlier work, collected in publication PMC7308888, “Development of a cell-free split-luciferase biochemical assay as a tool for screening for inhibitors of challenging protein-protein interaction targets” (Wellcome Open Research, 2020).

The target in the data set is RAF (Homo sapiens) (UniProt P04049).

RAS (from UniProt P01116): the Kd was 0.02 µM.
